Assay results published in article PMC12302650, “A tubulin-binding protein that preferentially binds to GDP-tubulin and promotes GTP exchange” (The Journal of Biological Chemistry, 2025).

Assays:
[1] = target: T1, GDP-tubulin (biotinylated α/β-tubulin heterodimer with GDP-bound β-tubulin) (UniProt Q71U36 1-451; Q9H4B7 1-451, biotinylated tubulin (chain and residues not stated) | biotinylated tubulin (chain and residues not stated)); assay: pull-down; supernatant depletion at equilibrium, same assay as for GTP-tubulin but with bead-bound GDP-tubulin; BuGZ construct (or mEGFP control) in solution; fit with Equation S2 for wild-type BuGZ; details: both partners purified
[2] = target: GTP-tubulin (biotinylated α/β-tubulin heterodimer with GTP-bound β-tubulin) (UniProt Q71U36 1-451; Q9H4B7 1-451, biotinylated tubulin (chain and residues not stated) | biotinylated tubulin (chain and residues not stated)); assay: pull-down; supernatant depletion at equilibrium; varying concentrations of biotinylated GTP-tubulin on streptavidin-coated magnetic beads; BuGZ construct (or mEGFP control) in solution, BuGZ 1.19 μM; 4 °C; nocodazole present; depletion from the supernatant measured by immunoblotting; details: both partners purified
[3] = target: taxol-stabilized microtubules (polymerized with a 1:10 mixture of biotin-labeled: unlabeled GTP-tubulin) (UniProt Q71U36 1-451; Q9H4B7 1-451, biotin on part of the tubulin (1:10 biotin-labeled: unlabeled; chain and residues not stated) | biotin on part of the tubulin (1:10 biotin-labeled: unlabeled; chain and residues not stated)); assay: pull-down; supernatant depletion at equilibrium; varying concentrations of biotin-containing taxol-stabilized microtubules on streptavidin-coated magnetic beads; BuGZ 1.19 μM; 4 °C; BuGZ left in the supernatant measured by quantitative immunoblotting; fit with a rectangular hyperbola (Equation S1); details: both partners purified
[4] = target: T1, GDP-tubulin (biotinylated α/β-tubulin …); assay: cell-based or functional assay

Kd [1]	Kd [2]	Kd [3]	GTP α-32P incorporation into 100 μM GDP-tubulin at equilibrium (1:1 GTP:GDP, 1.19 μM BuGZ, room temperature), increase relative to the control condition [4]	Binder
1470 nM	7140 nM			BuGZ-NTD (domain or fragment, BuGZ (ZNF207), Xenopus laevis, UniProt Q7ZXV8; the N-terminal 92 amino acids, which contain the two zinc fingers; The discussion says the zinc finger domain of BuGZ can be produced in bacteria; also called BuGZ's N-terminal domain; N-terminal 92 amino acids of BuGZ; source: purified) not shown
45.3 nM	477 nM	9450 nM	60.1%	Xenopus laevis BuGZ (Bub3-interacting and GLEBS motif-containing protein ZNF207), full-length wild type (natural protein, BuGZ (ZNF207), Xenopus laevis, UniProt Q7ZXV8; full-length wild type; also called wild-type BuGZ; full-length BuGZ; source: purified) not shown
